# T1: S. pombe Uba1 (S. pombe) (UniProt O94609)
# T1 sequence: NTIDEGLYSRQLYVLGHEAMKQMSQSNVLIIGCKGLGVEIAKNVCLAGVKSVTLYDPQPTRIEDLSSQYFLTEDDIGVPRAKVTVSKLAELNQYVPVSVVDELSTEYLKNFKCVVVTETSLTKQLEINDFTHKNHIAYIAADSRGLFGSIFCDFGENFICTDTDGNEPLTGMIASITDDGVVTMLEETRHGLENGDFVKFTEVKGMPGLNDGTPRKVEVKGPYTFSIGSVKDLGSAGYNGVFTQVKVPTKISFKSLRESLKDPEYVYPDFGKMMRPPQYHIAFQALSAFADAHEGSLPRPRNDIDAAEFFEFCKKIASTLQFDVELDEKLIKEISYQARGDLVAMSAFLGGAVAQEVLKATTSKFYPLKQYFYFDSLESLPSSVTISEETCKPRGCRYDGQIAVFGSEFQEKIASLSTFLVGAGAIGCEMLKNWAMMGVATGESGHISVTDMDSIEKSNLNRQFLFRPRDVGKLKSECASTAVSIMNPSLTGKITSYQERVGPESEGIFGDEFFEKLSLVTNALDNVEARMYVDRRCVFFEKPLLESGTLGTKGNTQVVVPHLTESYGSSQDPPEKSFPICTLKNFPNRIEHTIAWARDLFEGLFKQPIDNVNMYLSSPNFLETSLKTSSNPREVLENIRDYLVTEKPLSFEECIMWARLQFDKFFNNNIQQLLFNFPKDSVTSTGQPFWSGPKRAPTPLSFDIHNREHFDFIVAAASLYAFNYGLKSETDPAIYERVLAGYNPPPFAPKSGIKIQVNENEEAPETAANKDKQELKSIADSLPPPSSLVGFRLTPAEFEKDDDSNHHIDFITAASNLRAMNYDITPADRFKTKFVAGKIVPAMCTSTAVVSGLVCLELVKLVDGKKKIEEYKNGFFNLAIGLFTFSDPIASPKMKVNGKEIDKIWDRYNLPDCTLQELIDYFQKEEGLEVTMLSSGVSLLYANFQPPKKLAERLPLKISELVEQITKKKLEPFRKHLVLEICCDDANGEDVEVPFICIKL
# B1: Ubc15 L67F (enzyme)
# chain: MPSSASEQLLRKQLKEIQKNPPQGFSVGLVDDKSIFEWEVMIIGPEDTLYEGGFFHATLSFPQDYPFMPPKMKFTTEIWHPNVHPNGEVCISILHPPGDDKYGYEDAGERWLPVHSPETILISVISMLSSPNDESPANIDAAKEFRENPQEFKKRVRRLVRRSIEMI
# Target: T1, S. pombe Uba1 (S. pombe)
binder,measurement,value
B1,fold decrease in E1-E2 Ub thioester transfer assay (Figure 2E),2 fold

# Source: PMC5319395
